± gives the standard deviation.

Results on 36 sequences are retold here after the supplement of paper PMC10567573.

The data set is described as follows: protein stability index of a GFP-peptide fusion (GPS, HEK-293T) (PSI 1-6); higher = more stable. The settings on record: c terminus: a fixed tail appended.
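Also: 24-mer peptide tiles fused after GFP, lentivirally expressed, FACS-sorted into six equal bins by GFP/DsRed ratio, decoded by Illumina sequencing, PSI is the read-weighted mean bin number.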

As to PCASLLAFASTCLLSRFSVGIFHL [TMEM175], the protein stability index reads like this: (treatment: DMSO) 3.43 ± 0.076; (treatment: MLN4924 1 uM, 8 h) 3 ± 0.3.
For RPFWEEEKTFWKEEKSFWEMEKSF [CCDC70], the protein stability index reads like this: (treatment: DMSO) 2.71 ± 0.2; (treatment: MLN4924 1 uM, 8 h) 3.19 ± 0.26.
For EVGMVKCGSRRERCGYRLVRRQRS [ESR2], in that order: 3.19 ± 0.35 and 3.27 ± 0.43.
For TSTGFDRHTSPVFSPANPESSMED [BCL2L13], in that order: 5.39 ± 0.28 and 5.16 ± 0.072.
Turning to QAKPEKAAVAQKPRSHFTTPAPMS [MYBL2], the protein stability index reads like this: (treatment: DMSO) 4.44 ± 0.34; (treatment: MLN4924 1 uM, 8 h) 4.39 ± 0.11.
On to SFTSSDKTIKSFFPHSGKDCLLCF [C8orf76], for which the protein stability index is, setting by setting: (treatment: DMSO) 2.47 ± 0.51; (treatment: MLN4924 1 uM, 8 h) 1.9 ± 0.44.
As to IVPNSNGVITTTPTPPGQYFYPRG [JUNB], the protein stability index came out at 3.16 ± 0.27 (treatment: DMSO) and 3.35 ± 0.2 (treatment: MLN4924 1 uM, 8 h).
For NNQITCRNGQWSEPPKCLDPCVIS [CFHR2] the same measures were 3.34 ± 0.2 and 3.32 ± 0.25.
For DEDDEDEDEDEDEDEDEDKEEEEE [TAF7L], in that order: 5.46 ± 0.4 and 5.51 ± 0.1.
For RGQCLLYNWEEERATNHLDQVPSM [SPAG8] the same measures were 3.13 ± 0.16 and 3.58 ± 0.42.
For QQLEEELLRAKIEVEKLKAIRLRH [RAD54B], the protein stability index reads like this: (treatment: DMSO) 5.32 ± 0.25; (treatment: MLN4924 1 uM, 8 h) 5.43 ± 0.27.
For VSVFIGVLIDLWKITKVMDVRLDR [CLPTM1], in that order: 3.19 ± 0.1 and 2.97 ± 0.35.
As to VQRSPWLMMRMGILGRGLQEYQLP [TCAP], the protein stability index was 2.3 ± 0.17 (treatment: DMSO) and 2.21 ± 0.48 (treatment: MLN4924 1 uM, 8 h).
For TVDCEPSDLFRLQEYNIPGVIQSV [CDS2] the same measures were 3.01 ± 0.29 and 3.16 ± 0.25.
On to IMVGFILYCSTPTRTAEPAESSVP [SLC35F2], for which the protein stability index turned out to be 3.15 ± 0.68 (treatment: DMSO) and 2.62 ± 1 (treatment: MLN4924 1 uM, 8 h).
For FQQPAPEYHQPQAPANVAKIQLRL [LOXL2] the same measures were 2.81 ± 0.23 and 3.08 ± 0.28.
For MERVNETVVREVIFLGFSSLARLQ [OR10K2] the same measures were 2.64 ± 0.65 and 2.4 ± 0.5.
For FLVRLLMAMAVMLYYSNFVLALEE [MFSD9] the same measures were 2.85 ± 0.14 and 3.02 ± 0.21.
In the case of IQQELIKQEQSIISEYEKSLQFDE [RPAIN], the protein stability index is 4.64 ± 0.12 (treatment: DMSO) and 4.67 ± 0.079 (treatment: MLN4924 1 uM, 8 h).
In the case of LDSEKRTPLHVAAFLGDAEIIELL [ANKRD44], the protein stability index (treatment: DMSO) was found to be 2.95 ± 0.12 and the protein stability index (treatment: MLN4924 1 uM, 8 h) was 3.03 ± 0.32.
In the case of NQHDTEMKYYIVHLKRHFMFRNHL [DYRK1B], the protein stability index is 2.45 ± 0.23 (treatment: DMSO) and 2.3 ± 0.15 (treatment: MLN4924 1 uM, 8 h).
For STSGQPYPTSDQEGDPGSKQPRKK [LCOR], in that order: 5.5 ± 0.13 and 5.42 ± 0.19.
With GVSPADMYRWKLSSHEPCSATCTT [ADAMTSL2], the protein stability index amounted to 2.98 ± 0.33 (treatment: DMSO) and 3.37 ± 0.63 (treatment: MLN4924 1 uM, 8 h).
For SRFYEIHARARDQGQPAMEGHCVI [PCDHGC5], in that order: 2.82 ± 0.27 and 2.54 ± 0.15.
For LSRCEFQRAKCKDPQLEIAYRGNC [SMOC2] the same measures were 3.23 ± 0.42 and 3.14 ± 0.23.
Take RKKSKPKKCVKKFVEYCDVNNDKS [SMOC2]: the protein stability index reads like this: (treatment: DMSO) 3.52 ± 0.22; (treatment: MLN4924 1 uM, 8 h) 3.93 ± 0.58.
For RRDCMWSGFSARERLERAVSDRLA [MYCL] the same measures were 3.31 ± 0.23 and 3.4 ± 0.18.
As to GSVPLPESTRELGELLGEARYYLV [KCTD13], the protein stability index was determined as 2.11 ± 0.36 (treatment: DMSO) and 2.35 ± 0.32 (treatment: MLN4924 1 uM, 8 h).
Turning to LEISGIIMSRVNAYQQGVGYQMLG [PHTF1], the protein stability index was found to be 2.81 ± 0.35 (treatment: DMSO) and 2.63 ± 0.51 (treatment: MLN4924 1 uM, 8 h).
For LYYFRLAARSPQGLGASTAEISAR [PTPRD], in that order: 2.34 ± 0.42 and 2.33 ± 0.39.
For YSHLAYNNYRLGGNPSTNSRVTAS [SMARCE1], in that order: 3.3 ± 0.34 and 3.35 ± 0.18.
For ELDELQAAFEEFDTDRDGYISHRE [CABP4] the same measures were 5.26 ± 0.25 and 5.32 ± 0.15.
Take LVLKAHHDIVRFLVQLDDYRFASA [WDR41]: the protein stability index is, setting by setting: (treatment: DMSO) 2.96 ± 0.52; (treatment: MLN4924 1 uM, 8 h) 2.96 ± 0.67.
Take FAVLHWKPPQNPVDTYDVQVTAPG [TNXB]: the protein stability index is, setting by setting: (treatment: DMSO) 2.76 ± 0.25; (treatment: MLN4924 1 uM, 8 h) 2.68 ± 0.46.
For MQNGAGASRTSTIFLNGNRERPLN [TNXB], in that order: 3.7 ± 0.49 and 4.06 ± 0.2.
Take FNKPSRVPAPEAFRDPIWSTWALY [MYORG]: the protein stability index runs as follows: (treatment: DMSO) 2.23 ± 0.46; (treatment: MLN4924 1 uM, 8 h) 2.25 ± 0.47.
